Test results published in the supplement of paper PMC10567573.

B1: PPEF2 (parent)
chain: AFKAAALIQRWYRRYVARLEMRRR

Variants of: B1
Experiment: protein stability index of a GFP-peptide fusion (GPS, HEK-293T) (PSI 1-6); higher = more stable
Conditions: c terminus: a fixed tail appended
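Further: lentivirally expressed fusions sorted by FACS into six bins by GFP to DsRed ratio, PSI derived from sequencing read proportions per bin multiplied by bin number.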

Variant | protein stability index
AFKAAANIQRWYRRYVARLEMRRR | 2.64
AFKAAAQIQRWYRRYVARLEMRRR | 4.96
AFKAAARIQRWYRRYVARLEMRRR | 5.03
AFKAAASIQRWYRRYVARLEMRRR | 2.93
AFKAAATIQRWYRRYVARLEMRRR | 4.39
AFKAAALAQRWYRRYVARLEMRRR | 2.38
AFKAAALCQRWYRRYVARLEMRRR | 3.52
AFKAAALDQRWYRRYVARLEMRRR | 3.02
AFKAAALFQRWYRRYVARLEMRRR | 2.29
AFKAAALHQRWYRRYVARLEMRRR | 2.16
AFKAAALKQRWYRRYVARLEMRRR | 3.15
AFKAAALLQRWYRRYVARLEMRRR | 3.02
AFKAAALMQRWYRRYVARLEMRRR | 1.94
AFKAAALNQRWYRRYVARLEMRRR | 2.98
AFKAAALRQRWYRRYVARLEMRRR | 3.09
AFKAAALSQRWYRRYVARLEMRRR | 4.29
AFKAAALTQRWYRRYVARLEMRRR | 2.37
AFKAAALVQRWYRRYVARLEMRRR | 3.41
AFKAAALYQRWYRRYVARLEMRRR | 2.19
AFKAAALIARWYRRYVARLEMRRR | 3.25
AFKAAALICRWYRRYVARLEMRRR | 2.71
AFKAAALIDRWYRRYVARLEMRRR | 1.86
AFKAAALIERWYRRYVARLEMRRR | 1.59
AFKAAALIFRWYRRYVARLEMRRR | 2.85

Variant | protein stability index
AFKAAALIHRWYRRYVARLEMRRR | 2.16
AFKAAALIIRWYRRYVARLEMRRR | 2.27
AFKAAALIKRWYRRYVARLEMRRR | 3.59
AFKAAALILRWYRRYVARLEMRRR | 3.44
AFKAAALIMRWYRRYVARLEMRRR | 2.37
AFKAAALINRWYRRYVARLEMRRR | 2.1
AFKAAALIRRWYRRYVARLEMRRR | 3.48
AFKAAALISRWYRRYVARLEMRRR | 2.54
AFKAAALITRWYRRYVARLEMRRR | 3.39
AFKAAALIVRWYRRYVARLEMRRR | 2.99
AFKAAALIWRWYRRYVARLEMRRR | 2.98
AFKAAALIYRWYRRYVARLEMRRR | 2.23
AFKAAALIQAWYRRYVARLEMRRR | 2.4
AFKAAALIQDWYRRYVARLEMRRR | 1.67
AFKAAALIQFWYRRYVARLEMRRR | 2.88
AFKAAALIQGWYRRYVARLEMRRR | 1.88
AFKAAALIQHWYRRYVARLEMRRR | 2.51
AFKAAALIQLWYRRYVARLEMRRR | 1.71
AFKAAALIQNWYRRYVARLEMRRR | 3.6
AFKAAALIQSWYRRYVARLEMRRR | 2.27
AFKAAALIQTWYRRYVARLEMRRR | 2.1
AFKAAALIQRAYRRYVARLEMRRR | 4.29
AFKAAALIQRDYRRYVARLEMRRR | 2.79
AFKAAALIQREYRRYVARLEMRRR | 2.46

Variant | protein stability index
AFKAAALIQRFYRRYVARLEMRRR | 3.99
AFKAAALIQRGYRRYVARLEMRRR | 2.55
AFKAAALIQRHYRRYVARLEMRRR | 2.28
AFKAAALIQRIYRRYVARLEMRRR | 2.81
AFKAAALIQRKYRRYVARLEMRRR | 5.21
AFKAAALIQRLYRRYVARLEMRRR | 3.79
AFKAAALIQRMYRRYVARLEMRRR | 2.84
AFKAAALIQRNYRRYVARLEMRRR | 4.17
AFKAAALIQRPYRRYVARLEMRRR | 2.62
AFKAAALIQRQYRRYVARLEMRRR | 2.57
AFKAAALIQRSYRRYVARLEMRRR | 4.12
AFKAAALIQRYYRRYVARLEMRRR | 3.91
AFKAAALIQRWARRYVARLEMRRR | 2.35
AFKAAALIQRWCRRYVARLEMRRR | 2.14
AFKAAALIQRWERRYVARLEMRRR | 3.14
AFKAAALIQRWFRRYVARLEMRRR | 3.17
AFKAAALIQRWGRRYVARLEMRRR | 1.49
AFKAAALIQRWHRRYVARLEMRRR | 2.29
AFKAAALIQRWIRRYVARLEMRRR | 2.53
AFKAAALIQRWKRRYVARLEMRRR | 1.78
AFKAAALIQRWMRRYVARLEMRRR | 2.95
AFKAAALIQRWNRRYVARLEMRRR | 1.62
AFKAAALIQRWPRRYVARLEMRRR | 2.44
AFKAAALIQRWRRRYVARLEMRRR | 1.15

Variant | protein stability index
AFKAAALIQRWTRRYVARLEMRRR | 2.17
AFKAAALIQRWVRRYVARLEMRRR | 2.07
AFKAAALIQRWYARYVARLEMRRR | 1.62
AFKAAALIQRWYERYVARLEMRRR | 1.95
AFKAAALIQRWYFRYVARLEMRRR | 2.06
AFKAAALIQRWYHRYVARLEMRRR | 2.16
AFKAAALIQRWYIRYVARLEMRRR | 2.53
AFKAAALIQRWYKRYVARLEMRRR | 2.22
AFKAAALIQRWYLRYVARLEMRRR | 2.05
AFKAAALIQRWYMRYVARLEMRRR | 1.93
AFKAAALIQRWYNRYVARLEMRRR | 1.15
AFKAAALIQRWYPRYVARLEMRRR | 1.23
AFKAAALIQRWYQRYVARLEMRRR | 2.26
AFKAAALIQRWYTRYVARLEMRRR | 1.8
AFKAAALIQRWYRAYVARLEMRRR | 2.17
AFKAAALIQRWYRDYVARLEMRRR | 1.66
AFKAAALIQRWYREYVARLEMRRR | 2.32
AFKAAALIQRWYRFYVARLEMRRR | 2.29
AFKAAALIQRWYRHYVARLEMRRR | 2.42
AFKAAALIQRWYRIYVARLEMRRR | 1.84
AFKAAALIQRWYRKYVARLEMRRR | 3
AFKAAALIQRWYRLYVARLEMRRR | 1.84
